Assay results as given in patent US20120177664A1.

Target: A beta oligomer (synthetic A beta1-40, HCl form, 0.1 mg/ml in PBS, incubated at 37 degrees C for one hour) (UniProt P05067)
Assay: SPR (Biacore 3000)

Anti-A beta antibody 6E10 was tested. Which Kd did it give?
Its Kd is 2.91 nM.

And the koff?
The koff was 0.000168 s⁻¹.

What about the kon of the same substance?
Its kon is 57800 M⁻¹ s⁻¹.
